According to patent US20030143208A1, “Oxidative stress-resistant cell lines and methods of use thereof” (priority 2002, published 2003):
Entries after “also recorded” stand apart in the source; their conditions may differ.

Tests used:
[1] = tested on: tyrosine hydroxylase (TH); experiment: Tyrosine hydroxylase activity assay ([3H]H2O release from [3H]tyrosine) of wt- and mutant-TH, with and without peroxynitrite treatment; format: biochemical, rat; conditions: nitrating and oxidizing concentrations of peroxynitrite, phosphate buffer 0.1 M, DTPA 0.1 mM, pH 7.4, FIG. 3A
Method: (§1) To further confirm the site of nitration in vivo, the tyrosine residues 423, 428, and 432 were individually mutated to Phe. The Tyr423Phe, Tyr428Phe, and Tyr432Phe mutants were created with the QuikChange™ Site-Directed mutagenesis kit from Stratagene as previously described (25). Wild-type rat TH cDNA (GenBank accession no.: NM-012740) was subcloned into the mammalian pcDNA3.1+ expression vector (invitrogen) and used as the DNA template (25 ng) to create the mutants. Complete DNA sequencing data verified the presence of the appropriate mutation in the coding sequences of all recombinant proteins.
(§2) Recombinant wt- and mutant TH were isolated and purified from BL21(DE3)pLysS E. coli expressing the full-length wt-TH, Y423F-TH, Y428F-TH, or Y432F-TH cDNAs. Following isolation enzyme activity was assayed after treatment with peroxynitrite as previously described (25 and 26). Briefly, wt- or mutant-TH were exposed to several concentrations of peroxynitrite under identical conditions, in phosphate buffer 0.1 M containing DTPA 0.1 mM at pH 7.4. The activity of TH was assayed by the release of [^3H]H2O from [^3H]tyrosine in the presence of catalase. The specific activity of the partially purified Tyr423Phe mutant TH was 20% of the wild type TH. It is also shown that the enzyme activity of the wild type, and the Tyr428Phe and Tyr432Phe mutants were inhibited by exposure to nitrating and oxidizing concentrations of peroxynitrite (FIG. 3A). […] Enzymatic activity was assessed using a standard assay and the Lovenberg assay as described in (26) (FIGS. 3B and 3C).

[2] = molecular target: T1, tyrosine hydroxylase (TH) (Rattus norvegicus, UniProt P04177, Y423F); experiment: as above; format: biochemical
T1 construct: E. coli expressing the full-length wt-TH, Y423F-TH, Y428F-TH, or Y432F-TH cDNAs; made in house; host or cells: BL21(DE3)pLysS E. coli
Method: as §1, §2

[3] = molecular target: tyrosine hydroxylase (TH) (Rattus norvegicus, UniProt P04177); experiment: Nitration of TH by peroxynitrite in vitro; format: biochemical; conditions: recombinantly purified TH treated with peroxynitrite in vitro
Excerpt: Cysteine, methionine, tryptophan and tyrosine appear to be the principal amino acids in proteins modified by peroxynitrite in vitro (9-14). To resolve the apparent differences, the reaction of peroxynitrite with recombinantly purified rat TH in vitro was re-examined and no evidence of cysteine oxidation was found. Oxidation of one cysteine residue per molecule of TH was observed only at high peroxynitrite concentrations, and three cysteine residues were oxidized in partially unfolded protein.

[4] = tested on: TH in cultured dopaminergic neurons; conditions: cultured dopaminergic neurons after MPP+ challenge; Pong et al. (22); cited from earlier work

T1 sequence (P04177 2-498 Y423F): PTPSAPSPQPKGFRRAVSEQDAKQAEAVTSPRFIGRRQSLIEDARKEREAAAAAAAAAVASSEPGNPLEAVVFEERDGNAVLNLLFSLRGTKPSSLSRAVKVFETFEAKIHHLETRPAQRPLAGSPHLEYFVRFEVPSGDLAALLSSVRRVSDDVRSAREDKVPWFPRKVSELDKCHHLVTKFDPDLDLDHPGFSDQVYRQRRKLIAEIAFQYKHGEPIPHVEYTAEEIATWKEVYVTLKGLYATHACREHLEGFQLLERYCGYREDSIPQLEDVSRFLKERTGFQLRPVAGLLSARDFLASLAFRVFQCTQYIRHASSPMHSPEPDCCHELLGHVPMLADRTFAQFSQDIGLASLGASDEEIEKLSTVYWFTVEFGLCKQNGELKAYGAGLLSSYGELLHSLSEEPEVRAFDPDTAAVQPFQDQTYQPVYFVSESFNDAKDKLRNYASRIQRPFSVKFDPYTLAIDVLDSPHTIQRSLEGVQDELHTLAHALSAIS
Sequence of tyrosine hydroxylase (TH) (Rattus norvegicus, UniProt P04177) (P04177 whole entry): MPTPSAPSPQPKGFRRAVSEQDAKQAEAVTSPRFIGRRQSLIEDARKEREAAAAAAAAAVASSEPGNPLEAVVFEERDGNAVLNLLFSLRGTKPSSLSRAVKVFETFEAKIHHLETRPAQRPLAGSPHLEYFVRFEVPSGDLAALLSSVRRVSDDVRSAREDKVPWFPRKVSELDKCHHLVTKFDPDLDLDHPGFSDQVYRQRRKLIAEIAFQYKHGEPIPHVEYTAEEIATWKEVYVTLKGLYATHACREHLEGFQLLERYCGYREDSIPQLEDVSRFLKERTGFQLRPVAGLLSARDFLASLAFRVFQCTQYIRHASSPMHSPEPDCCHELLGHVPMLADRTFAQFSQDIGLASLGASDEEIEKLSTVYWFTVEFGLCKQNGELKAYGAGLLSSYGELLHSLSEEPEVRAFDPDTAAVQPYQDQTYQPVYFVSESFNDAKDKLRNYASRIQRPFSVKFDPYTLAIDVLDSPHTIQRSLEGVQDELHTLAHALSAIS

Compound: Tyr428Phe: rat tyrosine hydroxylase mutant with tyrosine residue 428 mutated to Phe
- TH enzymatic activity after exposure to peroxynitrite [1]: inhibited

Compound: Tyr423Phe mutant TH: rat tyrosine hydroxylase in which Tyr423 was substituted with Phe
- TH enzymatic activity after exposure to peroxynitrite ([1]; listed as Tyr423 Phe mutant): no significant loss of enzymatic activity
- TH enzymatic activity after exposure to peroxynitrite ([1]; listed as Tyr423Phe mutant): no loss in TH enzymatic activity; also recorded: unaffected
- resistance to inactivation by different concentrations of peroxynitrite compared to wild type TH, Lovenberg assay ([2]; cell lysates, Lovenberg assay, FIG. 3C): resist inactivation
- resistance to inactivation by different concentrations of peroxynitrite compared to wild type TH ([2]; cell lysates, standard assay, FIG. 3B): resist inactivation
- specific activity relative to wild type TH ([2]; partially purified protein, % of the wild type TH): 20%
- nitration by peroxynitrite [3]: lack of nitration

Compound: COc1cccc(C=NCCN=Cc2cccc(OC)c2[O-])c1[O-].[Cl-].[Mn+3] [EUK134]
- nitration of TH [4]: prevented nitration of TH

Compound: wild type: recombinant wild-type rat tyrosine hydroxylase (GenBank accession no. NM-012740) [reference compound]
- TH enzymatic activity after exposure to peroxynitrite [1]: inhibited

Compound: Tyr432Phe: rat tyrosine hydroxylase mutant with tyrosine residue 432 mutated to Phe
- TH enzymatic activity after exposure to peroxynitrite [1]: inhibited
